Experimental data from patent US9273146 (Takeda / Millennium, dated 2016).

Experiments:
[1] = biological target: T1, human GCC (guanylyl cyclase C) (human, UniProt P25092 24-1073); test: automated IHC (TechMate) on FFPE colon tumors and cell pellets, antibody at 1.0 ug/ml overnight
T1 construct: Target of the IHC on formalin-fixed, paraffin-embedded HEK293-GCC xenografts, GCC-transfected cell pellets and human colon tissues; also called hGCC; STAR

[2] = biological target: T1, human GCC (guanylyl cyclase C); test: IHC on FFPE GCC-transfected and parental cell pellets

T1 sequence (P25092 24-1073 limits assumed): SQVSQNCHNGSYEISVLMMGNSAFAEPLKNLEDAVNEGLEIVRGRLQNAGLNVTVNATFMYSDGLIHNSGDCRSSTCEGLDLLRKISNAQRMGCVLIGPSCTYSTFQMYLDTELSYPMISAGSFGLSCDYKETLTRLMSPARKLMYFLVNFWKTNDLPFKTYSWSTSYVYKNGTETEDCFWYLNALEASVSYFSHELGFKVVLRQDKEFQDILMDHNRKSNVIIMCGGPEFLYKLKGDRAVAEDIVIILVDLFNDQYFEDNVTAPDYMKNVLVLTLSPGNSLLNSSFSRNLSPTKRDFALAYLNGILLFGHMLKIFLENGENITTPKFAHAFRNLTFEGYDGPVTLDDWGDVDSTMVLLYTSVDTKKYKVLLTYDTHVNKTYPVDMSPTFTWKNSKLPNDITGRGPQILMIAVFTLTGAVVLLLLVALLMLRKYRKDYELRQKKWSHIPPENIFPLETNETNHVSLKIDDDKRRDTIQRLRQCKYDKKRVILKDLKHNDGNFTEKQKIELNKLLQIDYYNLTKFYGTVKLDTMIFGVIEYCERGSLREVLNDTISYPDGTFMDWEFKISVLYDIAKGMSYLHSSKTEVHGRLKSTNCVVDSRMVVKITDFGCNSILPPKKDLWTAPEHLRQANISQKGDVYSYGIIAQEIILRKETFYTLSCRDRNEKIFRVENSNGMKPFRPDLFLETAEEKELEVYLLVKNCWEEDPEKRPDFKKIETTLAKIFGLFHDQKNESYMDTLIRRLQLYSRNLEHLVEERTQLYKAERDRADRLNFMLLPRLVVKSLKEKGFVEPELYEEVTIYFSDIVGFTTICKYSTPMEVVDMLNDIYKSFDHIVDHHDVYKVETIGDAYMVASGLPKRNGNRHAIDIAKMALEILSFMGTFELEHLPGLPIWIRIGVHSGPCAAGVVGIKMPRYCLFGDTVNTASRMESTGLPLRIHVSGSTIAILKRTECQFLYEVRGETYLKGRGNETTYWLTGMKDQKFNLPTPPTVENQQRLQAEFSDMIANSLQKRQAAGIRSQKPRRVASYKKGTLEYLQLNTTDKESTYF

B1: MIL-44-148-2 (antibody, V domains shown)
VH: QSVKESGGGLFKPTDTLTLTCTVSGFSLSSHRMNWVRQTPGKGLEWIAIITHNSITYYASWAKSRSTITRNTSENTVTLKMTSLTAADTATYFCAREDSMGYYFDLWGPGTLVTISS
VL: AYDMTQTPASVEVAVGGTVTIKCQASQSISNWLAWYQQKPGQSPKPLIYRASTLASGVSSRFRGSGSGTQFTLTISGVECADAATYYCQQTYTNNHLDNGFGGGTEVVVKG
notes: Rabbit monoclonal IgG from a rabbit-rabbit hybridoma
B1: binds [1].

B2: MIL-44-67-4 (antibody, V domains shown)
VH: QSVEESGGRLVTPGTPLTLTCTASGSDISNYAISWVRQAPGKGLEFIGYISYGKSIYYASWAKGRFAISKTSSTTVDLEITSPTTEDTATYFCAREDSATYSPNLWGPGTLVTVSS
VL: AYDMTQTPASVEVAVGGTVTIKCQASQSINTYLAWYQQKPGQRPKLLIYRASTLASGVSSRFKGSGSGTEFTLTISGVECADAATYYCQQGYSYNNLDRAFGGGTEVVVTG
notes: Rabbit monoclonal IgG from a rabbit-rabbit hybridoma; also called MIL-44-67-4 antibody; subclone #67-4
B2: binds [2].
